Reference: the supplement of paper PMC10724198
± gives the standard deviation of the averaged measurements.

How the values were obtained:
Saccharomyces cerevisiae [1] = experiment: protein stability index of tFT-peptide fusion (C-terminal peptide) (PSI (0-1 scale)); higher = more stable (slower turnover)
Protocol: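 MPS profiling in S. cerevisiae of the tFT-X12 degron library: putative degron peptides plus stable controls, 12 aa, fused to the C-terminus of a sfGFP-mCherry timer. Cells are FACS-sorted into 8 mCherry/sfGFP bins and deep-sequenced. PSI runs from 0 (unstable) to 1 (stable). Backgrounds are wild type, das1Δ and doa10Δ at 30 °C, and wild type, das1Δ, cdc34-1 and cdc53-1 at 37 °C; 2-3 technical replicates each.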

Saccharomyces cerevisiae [2] = experiment: as above; conditions: genetic background: wild type; temperature: 30 C
[3] = genetic background: cdc34-1, temperature: 37 C
[4] = genetic background: cdc53-1, temperature: 37 C
[5] = genetic background: das1 deletion, temperature: 30 C
[6] = genetic background: das1 deletion, temperature: 37 C
[7] = genetic background: doa10 deletion, temperature: 30 C
[8] = genetic background: wild type, temperature: 30 C
[9] = genetic background: wild type, temperature: 37 C
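Also: PSI is a weighted mean of sequencing reads over stability bins, variants kept only with over 10 reads, mCherry proximal and sfGFP distal, peptide attached via GGGS linker.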

Row | Sequence | protein stability index (Saccharomyces cerevisiae [1]; [3]) | protein stability index (Saccharomyces cerevisiae [1]; [4]) | protein stability index (Saccharomyces cerevisiae [1]; [5]) | protein stability index (Saccharomyces cerevisiae [1]; [6]) | protein stability index (Saccharomyces cerevisiae [1]; [7]) | protein stability index (Saccharomyces cerevisiae [1]; [8]) | protein stability index (Saccharomyces cerevisiae [1]; [9]) | protein stability index (Saccharomyces cerevisiae [2])
1 | WHVSLRFAFYVF | 0.2459 ± 0.0022 | 0.326 ± 0.02 | 0.235 ± 0.019 | 0.342 ± 0.011 | 0.136 ± 0.0056 | 0.158 ± 0.018 | 0.263 ± 0.0032 | 0.22 ± 0.12
2 | GIANHAMVIVVL | 0.444 ± 0.011 | 0.469 ± 0.0052 | 0.322 ± 0.037 | 0.508 ± 0.0078 | 0.278 ± 0.0066 | 0.312 ± 0.017 | 0.468 ± 0.033 | 0.404 ± 0.04
3 | VFCSVGVSLFFG | 0.335 ± 0.014 | 0.496 ± 0.027 | 0.289 ± 0.04 | 0.5138 ± 0.0017 | 0.258 ± 0.015 | 0.284 ± 0.023 | 0.5118 ± 0.0026 | 0.411 ± 0.021
4 | WFFTDIVMLVRV | 0.126 ± 0.014 | 0.12 ± 0.044 | 0.192 ± 0.026 | 0.277 ± 0.0094 | 0.237 ± 0.0069 | 0.193 ± 0.023 | 0.233 ± 0.018 | 0.273 ± 0.0098
5 | GVRRRQLIWSVC | 0.532 ± 0.022 | 0.644 ± 0.014 | 0.468 ± 0.024 | 0.656 ± 0.0066 | 0.145 ± 0.0088 | 0.164 ± 0.039 | 0.28 ± 0.011 | 0.241 ± 0.092
6 | WIYKIVTYEKKS | 0.701 ± 0.05 | 0.701 ± 0.03 | 0.648 ± 0.041 | 0.705 ± 0.029 | 0.633 ± 0.038 | 0.633 ± 0.036 | 0.702 ± 0.0082 | 0.145 ± 0.049
7 | WVVWWFACVFGV | 0.346 ± 0.009 | 0.404 ± 0.0089 | 0.286 ± 0.033 | 0.429 ± 0.019 | 0.264 ± 0.008 | 0.28 ± 0.019 | 0.413 ± 0.0073 | 0.309 ± 0.049
8 | LSGDIPWSFVPV | 0.743 ± 0.04 | 0.766 ± 0.046 | 0.654 ± 0.011 | 0.787 ± 0.02 | 0.673 ± 0.028 | 0.677 ± 0.031 | 0.75756 ± 0.0002 | 0.738 ± 0.033
9 | LGVVVGGVRGVG | 0.43 ± 0.04 | 0.49 ± 0.0086 | 0.461 ± 0.012 | 0.505 ± 0.0054 | 0.467 ± 0.012 | 0.46 ± 0.025 | 0.4913 ± 0.0033 | 0.448 ± 0.045
10 | PSFSLLRSLTLI | 0.6084 ± 0.0024 | 0.7024 ± 0.0056 | 0.6712 ± 0.0021 | 0.699 ± 0.022 | 0.192 ± 0.02 | 0.205 ± 0.022 | 0.413 ± 0.027 | 0.284 ± 0.0073
11 | WRVVVSCALHVC | 0.123 ± 0.014 | 0.167 ± 0.0054 | 0.169 ± 0.017 | 0.274 ± 0.0034 | 0.0395 ± 0.017 | 0.0423 ± 0.009 | 0.0863 ± 0.026 | 0.085736 ± 1.1e-05
12 | KSEKTYTYQVIQ | 0.682 ± 0.022 | 0.749 ± 0.027 | 0.622 ± 0.023 | 0.7159 ± 0.0055 | 0.329 ± 0.031 | 0.37 ± 0.027 | 0.5757 ± 0.005 | 0.453 ± 0.0059
13 | CGWVRRARVKMM | 0.622 ± 0.073 | 0.693 ± 0.01 | 0.63 ± 0.026 | 0.709 ± 0.014 | 0.114 ± 0.03 | 0.137 ± 0.029 | 0.226 ± 0.0087 | 0.241 ± 0.015
14 | FVVWKDVLVMVR | 0.132 ± 0.03 | 0.1451 ± 0.00045 | 0.2 ± 0.032 | 0.286 ± 0.0095 | 0.158 ± 0.0054 | 0.192 ± 0.034 | 0.257 ± 0.0093 | 0.298 ± 0.029
15 | WYVRVYVLSVES | 0.136 ± 0.021 | 0.176 ± 0.028 | 0.186 ± 0.029 | 0.3115 ± 0.0015 | 0.137 ± 0.0079 | 0.168 ± 0.018 | 0.264 ± 0.022 | 0.237 ± 0.019
16 | AGALAVALPCIC | 0.493 ± 0.011 | 0.506 ± 0.018 | 0.399 ± 0.03 | 0.531 ± 0.011 | 0.316 ± 0.0093 | 0.358 ± 0.028 | 0.48 ± 0.011 | 0.5 ± 0.046
17 | CLLSRYRVFFLG | 0.629 ± 0.071 | 0.7205 ± 0.0048 | 0.591 ± 0.023 | 0.706 ± 0.026 | 0.134 ± 0.014 | 0.184 ± 0.026 | 0.351 ± 0.017 | 0.29 ± 0.056

Row | Sequence | protein stability index (Saccharomyces cerevisiae [1]; [3]) | protein stability index (Saccharomyces cerevisiae [1]; [4]) | protein stability index (Saccharomyces cerevisiae [1]; [5]) | protein stability index (Saccharomyces cerevisiae [1]; [6]) | protein stability index (Saccharomyces cerevisiae [1]; [7]) | protein stability index (Saccharomyces cerevisiae [1]; [8]) | protein stability index (Saccharomyces cerevisiae [1]; [9]) | protein stability index (Saccharomyces cerevisiae [2])
18 | AGGGGRFWVCVG | 0.656 ± 0.027 | 0.7348 ± 0.0059 | 0.6377 ± 0.0058 | 0.726 ± 0.02 | 0.215 ± 0.00078 | 0.258 ± 0.028 | 0.5539 ± 0.0019 | 0.364 ± 0.11
19 | WHLLRFETQMFC | 0.571 ± 0.018 | 0.7091 ± 0.0027 | 0.611 ± 0.037 | 0.712 ± 0.022 | 0.151 ± 0.028 | 0.164 ± 0.016 | 0.337 ± 0.0026 | 0.172 ± 0.049
20 | SARSYLTERLLA | 0.6255 ± 0.0024 | 0.714 ± 0.016 | 0.599 ± 0.021 | 0.721 ± 0.022 | 0.13 ± 0.018 | 0.162 ± 0.022 | 0.239 ± 0.0068 | 0.252 ± 0.0087
21 | VGVSVVMVVEVP | 0.0286 ± 0.0009 | 0.0328 ± 0.00097 | 0.0504 ± 0.005 | 0.0524 ± 0.0097 | 0.0409 ± 0.011 | 0.042 ± 0.0027 | 0.0384 ± 0.0064 | 0.0948 ± 0.012
22 | RWSEHGFLVFLS | 0.643 ± 0.022 | 0.736 ± 0.012 | 0.664 ± 0.016 | 0.7408 ± 0.0018 | 0.156 ± 0.015 | 0.158 ± 0.015 | 0.373 ± 0.04 | 0.301 ± 0.021
23 | VLLMFFFRFSAL | 0.589 ± 0.053 | 0.717 ± 0.014 | 0.545 ± 0.033 | 0.685 ± 0.02 | 0.483 ± 0.011 | 0.491 ± 0.022 | 0.624 ± 0.013 | 0.523 ± 0.049
24 | GVVCWLVVTGFL | 0.3865 ± 0.0018 | 0.48 ± 0.0076 | 0.286 ± 0.058 | 0.524 ± 0.0095 | 0.255 ± 0.0087 | 0.3 ± 0.019 | 0.463 ± 0.052 | 0.429 ± 0.013
25 | ISVSVVFFVLRF | 0.27578 ± 0.00014 | 0.369 ± 0.031 | 0.265 ± 0.041 | 0.429 ± 0.015 | 0.294 ± 0.017 | 0.279 ± 0.019 | 0.411 ± 0.011 | 0.3965 ± 0.0021
26 | LKCFLVLTFWFS | 0.187 ± 0.045 | 0.231 ± 0.012 | 0.222 ± 0.028 | 0.367 ± 0.018 | 0.184 ± 0.021 | 0.194 ± 0.027 | 0.3 ± 0.0095 | 0.263 ± 0.0049
27 | LIRDLLYMAVLV | 0.249 ± 0.015 | 0.258 ± 0.016 | 0.295 ± 0.019 | 0.357 ± 0.018 | 0.32 ± 0.0083 | 0.281 ± 0.039 | 0.329 ± 0.0044 | 0.38 ± 0.019
28 | VPSPWVFSLFLH | 0.594 ± 0.059 | 0.689 ± 0.0095 | 0.604 ± 0.025 | 0.73 ± 0.012 | 0.14 ± 0.0025 | 0.139 ± 0.0022 | 0.283 ± 0.016 | 0.242 ± 0.033
29 | FYPLPASIPDFA | 0.695 ± 0.025 | 0.7541 ± 0.0025 | 0.67 ± 0.017 | 0.74197 ± 5.2e-05 | 0.675 ± 0.022 | 0.6686 ± 0.0026 | 0.72 ± 0.011 | 0.7216 ± 0.0018
30 | LNLACCWFVRCR | 0.311 ± 0.035 | 0.339 ± 0.011 | 0.253 ± 0.035 | 0.4215 ± 0.00083 | 0.2269 ± 0.00044 | 0.261 ± 0.021 | 0.399 ± 0.015 | 0.349 ± 0.03
31 | RLSLCLAVLFLV | 0.433 ± 0.062 | 0.574 ± 0.035 | 0.564 ± 0.035 | 0.6468 ± 0.0032 | 0.116 ± 0.0062 | 0.126 ± 0.0059 | 0.146 ± 0.009 | 0.205 ± 0.035
32 | VLVLSFLYRMVK | 0.353 ± 0.065 | 0.4364 ± 0.0007 | 0.312 ± 0.054 | 0.507 ± 0.013 | 0.271 ± 0.013 | 0.304 ± 0.017 | 0.436 ± 0.032 | 0.376 ± 0.033
33 | VYRRKLDRLLCI | 0.561 ± 0.029 | 0.615 ± 0.025 | 0.512 ± 0.021 | 0.652 ± 0.0088 | 0.171 ± 0.012 | 0.182 ± 0.035 | 0.275 ± 0.005 | 0.332 ± 0.1
